Measurements reported in the RNAGym collection of RNA variant scans (doi:10.1093/molbev/msab373).

B1: Azoarcus group I ribozyme (parent)
chain: GUGCCUUGCGCCGGGAAACCACGCAAGGGAUGGUGUCAAAUUCGGCGAAACCUAAGCGCCCGCCCGGGCGUAUGGCAACGCCGAGCCAAGCUUCGGCGCCUGCGCCGAUGAAGGUGUAGAGACUAGACGGCACCCACCUAAGGCAAACGCUAUGGUGAAGGCAUAGUCCAGGGAGUGGCGAAAGUCACACAAACCGG

Variants of: B1
Assay: reverse-splicing fitness (ratio to wild type); higher = more active; in vitro selection; Mg2+ level not given
How it was run: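 An in vitro group I ribozyme library with randomized positions was T7-transcribed and gel-purified. In triplicate, 10 pmol RNA in EPPS pH 7.5 was reacted with 50 pmoles of a 30-nt RNA substrate for 1 h at 37 °C across several added MgCl2 levels (1–48 mM), then stopped with EDTA. Products were reverse transcribed from a substrate-complementary primer, PCR-amplified and sequenced (HiSeq 4000). Fitness is a variant's read proportion after selection over that before, normalised to wild type.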

Point of comparison: GUGCCUUGCGCCGGGAAACCACGCAAGGGAUGGUGUCAAAUUCGGCGAAACCUAAGCGCCCGCCCGGGCGUAUGGCAACGCUGAGCCAAGCUUCGGCGCCUGCGCCGAUGCAGGUGUAGAGACUAGACGGCACCCACCUAAGGCAAACGCUAUGGUGAAGGCAUAGUCAAGGGAGGGGCGAAAGUCACACAAACCGG, reverse-splicing fitness 0.00617. Against it:
- GUGCCUUGCGCCGGGAAACCACGCAAGGGAUGGUGUCAAAUUCGGCGAAACCUAAGCGCCCGCCCGGGCGUAUGGCAACGCUGAGCCAAGCUUCGGCGCCUGCGCCGAUGGAGGUGUAGCGACUAGACGGCACCCACCUAAGGCCAACGAUAUGGUGAAGGCAUAGUCCAGGGAGUGGCGAAAGUCACACAAACCGG — higher, 0.00803
- GUGCCUUGCGCCGGGAAACCACGCAAGGGAUGGUGUCAAAUUCGGCGAAACCUAAGCGCCCGCCCGGGCGUAUGGCAACGCUGAGCCAAGCUUCGGCGCCUGCGCCGAUGGAGGUGUAGCGACUAGACGGCACCCACCUAAGGCCAACGAUAUGGUGAAGGCAUAGUCAAGGGAGUGGCGAAAGUCACACAAACCGG — higher, 0.00689
- GUGCCUUGCGCCGGGAAACCACGCAAGGGAUGGUGUCAAAUUCGGCGAAACCUAAGCGCCCGCCCGGGCGUAUGGCAACGCUGAGCCAAGCUUCGGCGCCUGCGCCGAUGCAGGUGUAGAGACUAGACGGCACCCACCUAAGGCAAACGCUAUGGUGAAGGCAUAGUCUAGGGAGAGGCGAAAGUCACACAAACCGG — higher, 0.0179
- GUGCCUUGCGCCGGGAAACCACGCAAGGGAUGGUGUCAAAUUCGGCGAAACCUAAGCGCCCGCCCGGGCGUAUGGCAACGCUGAGCCAAGCUUCGGCGCCUGCGCCGAUGCAGGUGUAGAGACUAGACGGCACCCACCUAAGGCAAACGCUAUGGUGAAGGCAUAGUCUAGGGAGCGGCGAAAGUCACACAAACCGG — higher, 0.0146
- GUGCCUUGCGCCGGGAAACCACGCAAGGGAUGGUGUCAAAUUCGGCGAAACCUAAGCGCCCGCCCGGGCGUAUGGCAACGCUGAGCCAAGCUUCGGCGCCUGCGCCGAUGCAGGUGUAGAGACUAGACGGCACCCACCUAAGGCAAACGCUAUGGUGAAGGCAUAGUCUAGGGAGGGGCGAAAGUCACACAAACCGG — higher, 0.00681
- GUGCCUUGCGCCGGGAAACCACGCAAGGGAUGGUGUCAAAUUCGGCGAAACCUAAGCGCCCGCCCGGGCGUAUGGCAACGCUGAGCCAAGCUUCGGCGCCUGCGCCGAUGGAGGUGUAGAGACUAGACGGCACCCACCUAAGGCAAACGCUAUGGUGAAGGCAUAGUCCAGGGAGUGGCGAAAGUCACACAAACCGG — higher, 0.477
- GUGCCUUGCGCCGGGAAACCACGCAAGGGAUGGUGUCAAAUUCGGCGAAACCUAAGCGCCCGCCCGGGCGUAUGGCAACGCUGAGCCAAGCUUCGGCGCCUGCGCCGAUGCAGGUGUAGAGACUAGACGGCACCCACCUAAGGCAAACGCUAUGGUGAAGGCAUAGUCGAGGGAGGGGCGAAAGUCACACAAACCGG — higher, 0.007
- GUGCCUUGCGCCGGGAAACCACGCAAGGGAUGGUGUCAAAUUCGGCGAAACCUAAGCGCCCGCCCGGGCGUAUGGCAACGCUGAGCCAAGCUUCGGCGCCUGCGCCGAUGCAGGUGUAGAGACUAGACGGCACCCACCUAAGGCAAACGCUAUGGUGAAGGCAUAGUCGAGGGAGCGGCGAAAGUCACACAAACCGG — higher, 0.024
- GUGCCUUGCGCCGGGAAACCACGCAAGGGAUGGUGUCAAAUUCGGCGAAACCUAAGCGCCCGCCCGGGCGUAUGGCAACGCUGAGCCAAGCUUCGGCGCCUGCGCCGAUGCAGGUGUAGAGACUAGACGGCACCCACCUAAGGCAAACGCUAUGGUGAAGGCAUAGUCGAGGGAGAGGCGAAAGUCACACAAACCGG — higher, 0.0181
- GUGCCUUGCGCCGGGAAACCACGCAAGGGAUGGUGUCAAAUUCGGCGAAACCUAAGCGCCCGCCCGGGCGUAUGGCAACGCUGAGCCAAGCUUCGGCGCCUGCGCCGAUGGAGGUGUAGCGACUAGACGGCACCCACCUAAGGCAAACGCUAUGGUGAAGGCAUAGUCCAGGGAGUGGCGAAAGUCACACAAACCGG — higher, 0.0555
- GUGCCUUGCGCCGGGAAACCACGCAAGGGAUGGUGUCAAAUUCGGCGAAACCUAAGCGCCCGCCCGGGCGUAUGGCAACGCUGAGCCAAGCUUCGGCGCCUGCGCCGAUGCAGGUGUAGAGACUAGACGGCACCCACCUAAGGCAAACGCUAUGGUGAAGGCAUAGUCAAGGGAGCGGCGAAAGUCACACAAACCGG — higher, 0.0243
- GUGCCUUGCGCCGGGAAACCACGCAAGGGAUGGUGUCAAAUUCGGCGAAACCUAAGCGCCCGCCCGGGCGUAUGGCAACGCUGAGCCAAGCUUCGGCGCCUGCGCCGAUGCAGGUGUAGAGACUAGACGGCACCCACCUAAGGCAAACGCUAUGGUGAAGGCAUAGUCAAGGGAGAGGCGAAAGUCACACAAACCGG — higher, 0.016
- GUGCCUUGCGCCGGGAAACCACGCAAGGGAUGGUGUCAAAUUCGGCGAAACCUAAGCGCCCGCCCGGGCGUAUGGCAACGCUGAGCCAAGCUUCGGCGCCUGCGCCGAUGCAGGUGUAGAGACUAGACGGCACCCACCUAAGGCAAACGCUAUGGUGAAGGCAUAGUCUAGGGAGUGGCGAAAGUCACACAAACCGG — higher, 0.0123
- GUGCCUUGCGCCGGGAAACCACGCAAGGGAUGGUGUCAAAUUCGGCGAAACCUAAGCGCCCGCCCGGGCGUAUGGCAACGCUGAGCCAAGCUUCGGCGCCUGCGCCGAUGCAGGUGUAGAGACUAGACGGCACCCACCUAAGGCAAACGCUAUGGUGAAGGCAUAGUCAAGGGAGUGGCGAAAGUCACACAAACCGG — higher, 0.00958
- GUGCCUUGCGCCGGGAAACCACGCAAGGGAUGGUGUCAAAUUCGGCGAAACCUAAGCGCCCGCCCGGGCGUAUGGCAACGCUGAGCCAAGCUUCGGCGCCUGCGCCGAUGCAGGUGUAGAGACUAGACGGCACCCACCUAAGGCAAACGCUAUGGUGAAGGCAUAGUCGAGGGAGUGGCGAAAGUCACACAAACCGG — higher, 0.00866
- GUGCCUUGCGCCGGGAAACCACGCAAGGGAUGGUGUCAAAUUCGGCGAAACCUAAGCGCCCGCCCGGGCGUAUGGCAACGCUGAGCCAAGCUUCGGCGCCUGCGCCGAUGCAGGUGUAGAGACUAGACGGCACCCACCUAAGGCAAACGUUAUGGUGAAGGCAUAGUCUAGGGAGUGGCGAAAGUCACACAAACCGG — higher, 0.0116
- GUGCCUUGCGCCGGGAAACCACGCAAGGGAUGGUGUCAAAUUCGGCGAAACCUAAGCGCCCGCCCGGGCGUAUGGCAACGCUGAGCCAAGCUUCGGCGCCUGCGCCGAUGGAGGUGUAGCGACUAGACGGCACCCACCUAAGGCCAACGAUAUGGUGAAGGCAUAGUCAAGGGAGAGGCGAAAGUCACACAAACCGG — higher, 0.0104
- GUGCCUUGCGCCGGGAAACCACGCAAGGGAUGGUGUCAAAUUCGGCGAAACCUAAGCGCCCGCCCGGGCGUAUGGCAACGCUGAGCCAAGCUUCGGCGCCUGCGCCGAUGGAGGUGUAGCGACUAGACGGCACCCACCUAAGGCCAACGAUAUGGUGAAGGCAUAGUCAAGGGAGCGGCGAAAGUCACACAAACCGG — lower, 0.00523
- GUGCCUUGCGCCGGGAAACCACGCAAGGGAUGGUGUCAAAUUCGGCGAAACCUAAGCGCCCGCCCGGGCGUAUGGCAACGCUGAGCCAAGCUUCGGCGCCUGCGCCGAUGCAGGUGUAGAGACUAGACGGCACCCACCUAAGGCAAACGUUAUGGUGAAGGCAUAGUCCAGGGAGCGGCGAAAGUCACACAAACCGG — higher, 0.0667
- GUGCCUUGCGCCGGGAAACCACGCAAGGGAUGGUGUCAAAUUCGGCGAAACCUAAGCGCCCGCCCGGGCGUAUGGCAACGCUGAGCCAAGCUUCGGCGCCUGCGCCGAUGCAGGUGUAGAGACUAGACGGCACCCACCUAAGGCAAACGUUAUGGUGAAGGCAUAGUCCAGGGAGAGGCGAAAGUCACACAAACCGG — higher, 0.0385
- GUGCCUUGCGCCGGGAAACCACGCAAGGGAUGGUGUCAAAUUCGGCGAAACCUAAGCGCCCGCCCGGGCGUAUGGCAACGCUGAGCCAAGCUUCGGCGCCUGCGCCGAUGCAGGUGUAGAGACUAGACGGCACCCACCUAAGGCAAACGUUAUGGUGAAGGCAUAGUCCAGGGAGGGGCGAAAGUCACACAAACCGG — higher, 0.0125
- GUGCCUUGCGCCGGGAAACCACGCAAGGGAUGGUGUCAAAUUCGGCGAAACCUAAGCGCCCGCCCGGGCGUAUGGCAACGCUGAGCCAAGCUUCGGCGCCUGCGCCGAUGGAGGUGUAGCGACUAGACGGCACCCACCUAAGGCCAACGCUAUGGUGAAGGCAUAGUCCAGGGAGUGGCGAAAGUCACACAAACCGG — higher, 0.0519
- GUGCCUUGCGCCGGGAAACCACGCAAGGGAUGGUGUCAAAUUCGGCGAAACCUAAGCGCCCGCCCGGGCGUAUGGCAACGCUGAGCCAAGCUUCGGCGCCUGCGCCGAUGCAGGUGUAGAGACUAGACGGCACCCACCUAAGGCAAACGCUAUGGUGAAGGCAUAGUCCAGGGAGCGGCGAAAGUCACACAAACCGG — higher, 0.104
- GUGCCUUGCGCCGGGAAACCACGCAAGGGAUGGUGUCAAAUUCGGCGAAACCUAAGCGCCCGCCCGGGCGUAUGGCAACGCUGAGCCAAGCUUCGGCGCCUGCGCCGAUGCAGGUGUAGAGACUAGACGGCACCCACCUAAGGCAAACGCUAUGGUGAAGGCAUAGUCCAGGGAGGGGCGAAAGUCACACAAACCGG — higher, 0.02
- GUGCCUUGCGCCGGGAAACCACGCAAGGGAUGGUGUCAAAUUCGGCGAAACCUAAGCGCCCGCCCGGGCGUAUGGCAACGCUGAGCCAAGCUUCGGCGCCUGCGCCGAUGCAGGUGUAGAGACUAGACGGCACCCACCUAAGGCAAACGCUAUGGUGAAGGCAUAGUCCAGGGAGAGGCGAAAGUCACACAAACCGG — higher, 0.0847
- GUGCCUUGCGCCGGGAAACCACGCAAGGGAUGGUGUCAAAUUCGGCGAAACCUAAGCGCCCGCCCGGGCGUAUGGCAACGCUGAGCCAAGCUUCGGCGCCUGCGCCGAUGCAGGUGUAGAGACUAGACGGCACCCACCUAAGGCAAACGUUAUGGUGAAGGCAUAGUCUAGGGAGGGGCGAAAGUCACACAAACCGG — higher, 0.00713
- GUGCCUUGCGCCGGGAAACCACGCAAGGGAUGGUGUCAAAUUCGGCGAAACCUAAGCGCCCGCCCGGGCGUAUGGCAACGCUGAGCCAAGCUUCGGCGCCUGCGCCGAUGCAGGUGUAGAGACUAGACGGCACCCACCUAAGGCAAACGUUAUGGUGAAGGCAUAGUCUAGGGAGAGGCGAAAGUCACACAAACCGG — higher, 0.0192
- GUGCCUUGCGCCGGGAAACCACGCAAGGGAUGGUGUCAAAUUCGGCGAAACCUAAGCGCCCGCCCGGGCGUAUGGCAACGCUGAGCCAAGCUUCGGCGCCUGCGCCGAUGCAGGUGUAGAGACUAGACGGCACCCACCUAAGGCAAACGUUAUGGUGAAGGCAUAGUCUAGGGAGCGGCGAAAGUCACACAAACCGG — higher, 0.0145
- GUGCCUUGCGCCGGGAAACCACGCAAGGGAUGGUGUCAAAUUCGGCGAAACCUAAGCGCCCGCCCGGGCGUAUGGCAACGCUGAGCCAAGCUUCGGCGCCUGCGCCGAUGCAGGUGUAGAGACUAGACGGCACCCACCUAAGGCAAACGUUAUGGUGAAGGCAUAGUCGAGGGAGGGGCGAAAGUCACACAAACCGG — higher, 0.00752
